# Test results reported in article PMC9944232.
# B1: 15-bp dsDNA (dsDNA)
# DNA 1: GGTTAGTTATGCGCG
# DNA 2: CGCGCATAACTAACC
# Key:
# AIFΔ101 D489A/K518A = AIFΔ101 D489A/K518A (Homo sapiens, UniProt O95831 102-613, D489A;K518A); experiment: ITC; binary; ITC: 50 mM potassium phosphate pH 7.4, 15 °C (25 °C with CypA); EMSA: same buffer, 25 °C, 30 min, 2% agarose; AFM on mica at room temperature; settings: protein: recombinant; tags: N-terminal His6; blunt
# AIFΔ101 K510A/K518A = AIFΔ101 K510A/K518A (Homo sapiens, UniProt O95831 102-613, K510A;K518A); experiment: as above; settings: protein: recombinant; tags: N-terminal His6; blunt
# AIFΔ101 WT = AIFΔ101 WT (Homo sapiens, UniProt O95831 102-613); experiment: ITC; binary, no added metal; 15 °C; ITC: 50 mM potassium phosphate pH 7.4, 15 °C (25 °C with CypA); EMSA: same buffer, 25 °C, 30 min, 2% agarose; AFM on mica at room temperature; settings: protein: recombinant; tags: N-terminal His6; blunt
# AIFΔ101 WT;CypA = AIFΔ101 WT;CypA (Homo sapiens;Homo sapiens, UniProt O95831;P62937 102-613;1-165, |); experiment: ITC; dsDNA titrated into AIF:CypA 1:1; negative cooperativity; ITC: 50 mM potassium phosphate pH 7.4, 15 °C (25 °C with CypA); EMSA: same buffer, 25 °C, 30 min, 2% agarose; AFM on mica at room temperature; settings: protein: recombinant;recombinant; tags: N-terminal His6;N-terminal His6; copies: 1;1; blunt
# AIFΔ101 WT;Histone H2AX = AIFΔ101 WT;Histone H2AX (Homo sapiens;Homo sapiens, UniProt O95831;P16104 102-613;1-143, |); experiment: ITC; dsDNA titrated into AIF:H2AX 1:1; positive cooperativity; ITC: 50 mM potassium phosphate pH 7.4, 15 °C (25 °C with CypA); EMSA: same buffer, 25 °C, 30 min, 2% agarose; AFM on mica at room temperature; settings: protein: recombinant;recombinant; tags: N-terminal His6;N-terminal His6 (PreScission site); copies: 1;1; blunt
# Histone H2AX = Histone H2AX (Homo sapiens, UniProt P16104 1-143); experiment: ITC; binary; stronger than CypA; value in Table S4 not in material; ITC: 50 mM potassium phosphate pH 7.4, 15 °C (25 °C with CypA); EMSA: same buffer, 25 °C, 30 min, 2% agarose; AFM on mica at room temperature; settings: protein: recombinant; tags: N-terminal His6 (PreScission site); blunt
# [1] = target: AIFΔ101 WT;CypA;Histone H2AX (Homo sapiens;Homo sapiens;Homo sapiens, UniProt O95831;P62937;P16104 102-613;1-165;1-143, ||); experiment: ITC; dsDNA titrated into AIF:CypA with varied H2AX; intrinsic Kd from cooperativity fit, alpha 9.7; ITC: 50 mM potassium phosphate pH 7.4, 15 °C (25 °C with CypA); EMSA: same buffer, 25 °C, 30 min, 2% agarose; AFM on mica at room temperature; settings: protein: recombinant;recombinant;recombinant; tags: N-terminal His6;N-terminal His6;N-terminal His6 (PreScission site); copies: 1;1;1; blunt
# Sequence of AIFΔ101 WT;CypA;Histone H2AX (O95831 102-613, stated change not applied, chain 1 of 3, other chains not shown): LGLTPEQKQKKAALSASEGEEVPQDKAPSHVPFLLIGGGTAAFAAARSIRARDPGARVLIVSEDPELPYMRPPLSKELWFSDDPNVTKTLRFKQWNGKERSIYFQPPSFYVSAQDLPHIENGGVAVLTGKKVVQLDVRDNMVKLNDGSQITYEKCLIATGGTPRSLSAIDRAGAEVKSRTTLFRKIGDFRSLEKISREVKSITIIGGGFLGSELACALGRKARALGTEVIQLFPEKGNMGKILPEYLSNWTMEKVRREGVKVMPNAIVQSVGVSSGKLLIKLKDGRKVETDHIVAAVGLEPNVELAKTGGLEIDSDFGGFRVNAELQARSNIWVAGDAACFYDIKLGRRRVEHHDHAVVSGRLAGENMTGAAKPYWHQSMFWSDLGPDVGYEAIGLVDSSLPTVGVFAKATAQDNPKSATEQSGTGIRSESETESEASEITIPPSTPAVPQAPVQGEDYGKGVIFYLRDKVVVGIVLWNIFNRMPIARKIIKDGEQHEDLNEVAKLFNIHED
# Sequence of AIFΔ101 WT;CypA;Histone H2AX (P62937 whole entry, stated change not applied, chain 2 of 3, other chains not shown): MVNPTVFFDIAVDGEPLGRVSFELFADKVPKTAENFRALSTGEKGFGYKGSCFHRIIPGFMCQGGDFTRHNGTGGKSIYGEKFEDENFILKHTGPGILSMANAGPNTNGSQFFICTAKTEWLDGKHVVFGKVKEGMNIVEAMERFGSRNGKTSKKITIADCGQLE
# Sequence of AIFΔ101 D489A/K518A (O95831 102-613 D489A/K518A): as the sequence (O95831 102-613, stated change not applied, chain 1 of 3, other chains not shown) above, with D388A, K417A counted along it
# Sequence of AIFΔ101 K510A/K518A (O95831 102-613 K510A/K518A): as the sequence (O95831 102-613, stated change not applied, chain 1 of 3, other chains not shown) above, with K409A, K417A counted along it
# Sequence of AIFΔ101 WT (O95831 102-613, stated change not applied): as the sequence (O95831 102-613, stated change not applied, chain 1 of 3, other chains not shown) above
# Sequence of AIFΔ101 WT;Histone H2AX (O95831 102-613, stated change not applied, chain 1 of 2, other chains not shown): as the sequence (O95831 102-613, stated change not applied, chain 1 of 3, other chains not shown) above
# Sequence of AIFΔ101 WT;CypA (O95831 102-613, stated change not applied, chain 1 of 2): as the sequence (O95831 102-613, stated change not applied, chain 1 of 3, other chains not shown) above
# Sequence of AIFΔ101 WT;CypA (P62937 whole entry, stated change not applied, chain 2 of 2): as the sequence (P62937 whole entry, stated change not applied, chain 2 of 3, other chains not shown) above
binder,measurement,setting,value
B1,Kd,AIFΔ101 D489A/K518A,0.5 µM
same,Kd,AIFΔ101 K510A/K518A,0.5 µM
same,Kd,AIFΔ101 WT,2.9 µM
same,binding result,AIFΔ101 WT;CypA,binds
same,binding result,AIFΔ101 WT;Histone H2AX,binds
same,binding result,Histone H2AX,binds
same,Kd,[1],9.1 µM
